Results as given in patent US20240352102A1 (UNITED STATES GOVERNMENT AS REPRESENTED BY THE DEPARTMENT …, published 2024).

Key:
Peptide_010 = target: T1, Peptide_010; assay: peptide microarray
T1 peptide: GDTDAGLKESPLQTP

Peptide_011 = target: T2, Peptide_011; assay: peptide microarray
T2 peptide: AGLKESPLQTPTEDG

Peptide_012 = target: T3, Peptide_012; assay: peptide microarray
T3 peptide: ESPLQTPTEDGSEEP

Peptide_013 = target: T4, Peptide_013; assay: peptide microarray
T4 peptide: QTPTEDGSEEPGSET

Peptide_017 = target: T5, Peptide_017; assay: peptide microarray
T5 peptide: DAKSTPTAEAEEAGI

Peptide_018 = target: T6, Peptide_018; assay: peptide microarray
T6 peptide: TPTAEAEEAGIGDTP

Peptide_019 = target: T7, Peptide_019; assay: peptide microarray
T7 peptide: EAEEAGIGDTPSLED

Peptide_002 = target: T8, Peptide_002; assay: peptide microarray
T8 peptide: RQEFEVMEDHAGTYG

Peptide_020 = target: T9, Peptide_020; assay: peptide microarray
T9 peptide: AGIGDTPSLEDEAAG

Peptide_022 = target: T10, Peptide_022; assay: peptide microarray
T10 peptide: LEDEAAGHVTQARMV

Peptide_023 = target: T11, Peptide_023; assay: peptide microarray
T11 peptide: AAGHVTQARMVSKSK

Peptide_024 = target: T12, Peptide_024; assay: peptide microarray
T12 peptide: VTQARMVSKSKDGTG

Peptide_025 = target: T13, Peptide_025; assay: peptide microarray
T13 peptide: RMVSKSKDGTGSDDK

Peptide_027 = target: T14, Peptide_027; assay: peptide microarray
T14 peptide: GTGSDDKKAKGADGK

Peptide_029 = target: T15, Peptide_029; assay: peptide microarray
T15 peptide: AKGADGKTKIATPRG

Peptide_031 = target: T16, Peptide_031; assay: peptide microarray
T16 peptide: KIATPRGAAPPGQKG

Peptide_032 = target: T17, Peptide_032; assay: peptide microarray
T17 peptide: PRGAAPPGQKGQANA

Peptide_033 = target: T18, Peptide_033; assay: peptide microarray
T18 peptide: APPGQKGQANATRIP

Peptide_004 = target: T19, Peptide_004; assay: peptide microarray
T19 peptide: DHAGTYGLGDRKDQG

Peptide_005 = target: T20, Peptide_005; assay: peptide microarray
T20 peptide: TYGLGDRKDQGGYTM

Peptide_007 = target: T21, Peptide_007; assay: peptide microarray
T21 peptide: DQGGYTMHQDQEGDT

Peptide_008 = target: T22, Peptide_008; assay: peptide microarray
T22 peptide: YTMHQDQEGDTDAGL

Peptide_009 = target: T23, Peptide_009; assay: peptide microarray
T23 peptide: QDQEGDTDAGLKESP

Peptide_037 = target: T24, Peptide_037; assay: peptide microarray
T24 peptide: KTPPAPKTPPSSGEP

Peptide_038 = target: T25, Peptide_038; assay: peptide microarray
T25 peptide: APKTPPSSGEPPKSG

Peptide_039 = target: T26, Peptide_039; assay: peptide microarray
T26 peptide: PPSSGEPPKSGDRSG

Peptide_041 = target: T27, Peptide_041; assay: peptide microarray
T27 peptide: KSGDRSGYSSPGSPG

Peptide_044 = target: T28, Peptide_044; assay: peptide microarray
T28 peptide: SPGTPGSRSRTPSLP

Peptide_045 = target: T29, Peptide_045; assay: peptide microarray
T29 peptide: PGSRSRTPSLPTPPT

Peptide_049 = target: T30, Peptide_049; assay: peptide microarray
T30 peptide: EPKKVAVVRTPPKSP

Peptide_053 = target: T31, Peptide_053; assay: peptide microarray
T31 peptide: SAKSRLQTAPVPMPD

Peptide_054 = target: T32, Peptide_054; assay: peptide microarray
T32 peptide: RLQTAPVPMPDLKNV

Peptide_055 = target: T33, Peptide_055; assay: peptide microarray
T33 peptide: APVPMPDLKNVKSKI

Peptide_056 = target: T34, Peptide_056; assay: peptide microarray
T34 peptide: MPDLKNVKSKIGSTE

Peptide_057 = target: T35, Peptide_057; assay: peptide microarray
T35 peptide: KNVKSKIGSTENLKH

Peptide_063 = target: T36, Peptide_063; assay: peptide microarray
T36 peptide: INKKLDLSNVQSKCG

Peptide_065 = target: T37, Peptide_065; assay: peptide microarray
T37 peptide: NVQSKCGSKDNIKHV

Peptide_066 = target: T38, Peptide_066; assay: peptide microarray
T38 peptide: KCGSKDNIKHVPGGG

Peptide_067 = target: T39, Peptide_067; assay: peptide microarray
T39 peptide: KDNIKHVPGGGSVQI

Peptide_070 = target: T40, Peptide_070; assay: peptide microarray
T40 peptide: VQIVYKPVDLSKVTS

Peptide_071 = target: T41, Peptide_071; assay: peptide microarray
T41 peptide: YKPVDLSKVTSKCGS

Peptide_072 = target: T42, Peptide_072; assay: peptide microarray
T42 peptide: DLSKVTSKCGSLGNI

Peptide_074 = target: T43, Peptide_074; assay: peptide microarray
T43 peptide: CGSLGNIHHKPGGGQ

[1] = target: T44, recombinant human tau incubated with poly(A) RNA (human, UniProt P10636-7 1-412, limits assumed); assay: dot blot, 20 ng tau, 8 replicates, reference heparin incubated tau
T44 construct: Oligomeric complex with RNA; also called tau/RNA complexes; TRCs
Procedure: To control for other polyanions inducing the TRC35+ tau conformation, recombinant protein was purified from E. coli overexpressing human tau. Twenty ng of purified tau proteins was incubated with poly(A) RNA or Heparin as shown in representative blots above. In total, 8 replicate samples were dot blotted with mAb TRC35 (FIG. 11A) and SP70 total tau mAb (FIG. 11B) as previously described for FIG. 1.

T44 sequence (P10636 other isoform, or with tags, fused parts or gaps limits assumed): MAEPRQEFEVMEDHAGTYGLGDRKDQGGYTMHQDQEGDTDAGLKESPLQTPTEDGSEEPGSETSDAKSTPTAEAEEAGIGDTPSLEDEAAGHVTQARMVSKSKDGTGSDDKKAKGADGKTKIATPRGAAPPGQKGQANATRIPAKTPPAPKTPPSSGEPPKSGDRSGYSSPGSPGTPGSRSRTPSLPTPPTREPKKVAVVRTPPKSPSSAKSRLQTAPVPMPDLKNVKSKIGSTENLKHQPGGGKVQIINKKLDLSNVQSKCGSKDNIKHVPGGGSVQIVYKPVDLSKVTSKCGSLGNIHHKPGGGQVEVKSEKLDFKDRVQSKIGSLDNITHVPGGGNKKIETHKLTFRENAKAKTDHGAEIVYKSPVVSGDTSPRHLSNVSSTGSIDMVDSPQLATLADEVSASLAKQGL

B1: mAb TRC35 (antibody, V domains shown)
VH: QVQLQQPGTELVKPGASVKLSCKASGYTFTSYWLQWVKQRPGQGLEWIGEIDPSDSYTNYNQKFKGKATLTVDTSSSTAYMQLSSLTSEDSAVYYCATLTGSWGQGTTLAVSS
VL: DVLLTQTPLSLPVSLGDQASISCRASQSIVDSNGNTFLEWYLQKSGQSPKVLIYKVSNRFSGVPDRFSGRGSGTDFTLKISRVEAEDLGVYYCFQGSHVPYTFGGGTKLEIK
notes: Mouse hybridoma monoclonal antibody raised in tau knockout mice against tau/poly(A) RNA complexes; IgG1 isotype, kappa light chain; also called TRC35 monoclonal antibody; hybridoma clone #35
Peptide_010
  binding result: no binding (tested: 1 ug/ml)
Peptide_011
  binding result: no binding (tested: 1 ug/ml)
Peptide_012
  binding result: no binding (tested: 1 ug/ml)
Peptide_013
  binding result: no binding (tested: 1 ug/ml)
Peptide_017
  binding result: no binding (tested: 1 ug/ml)
Peptide_018
  binding result: no binding (tested: 1 ug/ml)
Peptide_019
  binding result: no binding (tested: 1 ug/ml)
Peptide_002
  binding result: no binding (tested: 1 ug/ml)
Peptide_020
  binding result: no binding (tested: 1 ug/ml)
Peptide_022
  binding result: no binding (tested: 1 ug/ml)
Peptide_023
  binding result: no binding (tested: 1 ug/ml)
Peptide_024
  binding result: no binding (tested: 1 ug/ml)
Peptide_025
  binding result: no binding (tested: 1 ug/ml)
Peptide_027
  binding result: no binding (tested: 1 ug/ml)
Peptide_029
  binding result: no binding (tested: 1 ug/ml)
Peptide_031
  binding result: no binding (tested: 1 ug/ml)
Peptide_032
  binding result: no binding (tested: 1 ug/ml)
Peptide_033
  binding result: no binding (tested: 1 ug/ml)
Peptide_004
  binding result: no binding (tested: 1 ug/ml)
Peptide_005
  binding result: no binding (tested: 1 ug/ml)
Peptide_007
  binding result: no binding (tested: 1 ug/ml)
Peptide_008
  binding result: no binding (tested: 1 ug/ml)
Peptide_009
  binding result: no binding (tested: 1 ug/ml)
Peptide_037
  binding result: no binding (tested: 1 ug/ml)
Peptide_038
  binding result: no binding (tested: 1 ug/ml)
Peptide_039
  binding result: no binding (tested: 1 ug/ml)
Peptide_041
  binding result: no binding (tested: 1 ug/ml)
Peptide_044
  binding result: no binding (tested: 1 ug/ml)
Peptide_045
  binding result: no binding (tested: 1 ug/ml)
Peptide_049
  binding result: no binding (tested: 1 ug/ml)
Peptide_053
  binding result: no binding (tested: 1 ug/ml)
Peptide_054
  binding result: no binding (tested: 1 ug/ml)
Peptide_055
  binding result: no binding (tested: 1 ug/ml)
Peptide_056
  binding result: no binding (tested: 1 ug/ml)
Peptide_057
  binding result: no binding (tested: 1 ug/ml)
Peptide_063
  binding result: no binding (tested: 1 ug/ml)
Peptide_065
  binding result: no binding (tested: 1 ug/ml)
Peptide_066
  binding result: no binding (tested: 1 ug/ml)
Peptide_067
  binding result: no binding (tested: 1 ug/ml)
Peptide_070
  binding result: no binding (tested: 1 ug/ml)
Peptide_071
  binding result: no binding (tested: 1 ug/ml)
Peptide_072
  binding result: no binding (tested: 1 ug/ml)
Peptide_074
  binding result: no binding (tested: 1 ug/ml)
[1]
  fold TRC35 signal normalized to SP70, relative to heparin: ~2 fold
